Biological target: Human IgM (Homo sapiens, UniProt P01871)
Assay: IgM binding assay (human IgM)

Chain of Human IgM (P01871 1-433 limits assumed): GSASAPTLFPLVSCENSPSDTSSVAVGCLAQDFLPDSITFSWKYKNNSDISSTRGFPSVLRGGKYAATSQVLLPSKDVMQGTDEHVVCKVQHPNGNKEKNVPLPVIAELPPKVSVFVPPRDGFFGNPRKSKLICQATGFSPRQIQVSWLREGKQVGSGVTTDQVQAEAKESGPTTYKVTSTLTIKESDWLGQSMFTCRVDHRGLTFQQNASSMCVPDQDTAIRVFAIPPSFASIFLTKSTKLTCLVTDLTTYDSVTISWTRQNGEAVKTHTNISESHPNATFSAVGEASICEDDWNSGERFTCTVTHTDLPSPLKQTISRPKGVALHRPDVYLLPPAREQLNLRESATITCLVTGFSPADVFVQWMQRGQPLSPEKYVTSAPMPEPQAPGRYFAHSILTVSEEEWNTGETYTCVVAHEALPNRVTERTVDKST
Chain of Human IgM (P01591 23-159 partner): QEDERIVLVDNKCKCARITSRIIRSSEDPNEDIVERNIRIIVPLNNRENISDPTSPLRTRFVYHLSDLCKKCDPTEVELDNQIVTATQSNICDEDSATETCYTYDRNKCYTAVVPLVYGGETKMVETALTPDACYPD

Molecule	potency in human IgM binding assay
DVD3767: DVD-Ig: VD1 hIgM (HB-57.3), SS linker, VD2 DNA (PA4); heavy SEQ ID NO 78, light 79 (antibody) heavy: QVQLQQPGAEFVKPGAPVKLSCKASGYPFTTYWVNWMKQRPGRGLEWIGRIDPYDSETLYNQKFKDKATLTVDKSSSTAYIQLSSLTSEDSAVYYCARETYDYPFAYWGQGTLVTVSSASTKGPEVQLVESGGGLVKPGGSLKLSCVASGFTFSTYAMSWVRQTPTKRLEWVATISRGGVSTYYPDTVKGRFTISRDNAKNTLYLQMSSLRSEDTAMYYCARPPTIVTTWFAYWGQGTLVTVSS light: DIVMTQSPSSLAMSVGQKVTMSCKSSQSLLNSSNQKNYLAWYQQKPGQSPELLVYFASTRESGVPDRFIGSGSGTDFTLTISSVQAEDLADYFCQQHYSTPFTFGSETKLEIKRTVAAPDVVMTQTPLSLPVSLGDQASISCRSSQSLVHSNGNTYLHWYLQKPGQSPKLLIYKVSNRFSGVPDRFSGSGSGTDFTLKISRVEAEDLGAYFCSQSTHVPYTFGGPTRLEIKR	highest potency
DVD3769: DVD-Ig: VD1 hIgM (HB-57.3), SL linker, VD2 DNA (PA4); heavy SEQ ID NO 80, light 81 (antibody) heavy: QVQLQQPGAEFVKPGAPVKLSCKASGYPFTTYWVNWMKQRPGRGLEWIGRIDPYDSETLYNQKFKDKATLTVDKSSSTAYIQLSSLTSEDSAVYYCARETYDYPFAYWGQGTLVTVSSASTKGPEVQLVESGGGLVKPGGSLKLSCVASGFTFSTYAMSWVRQTPTKRLEWVATISRGGVSTYYPDTVKGRFTISRDNAKNTLYLQMSSLRSEDTAMYYCARPPTIVTTWFAYWGQGTLVTVSS light: DIVMTQSPSSLAMSVGQKVTMSCKSSQSLLNSSNQKNYLAWYQQKPGQSPELLVYFASTRESGVPDRFIGSGSGTDFTLTISSVQAEDLADYFCQQHYSTPFTFGSETKLEIKRTVAAPSVFIFPPDVVMTQTPLSLPVSLGDQASISCRSSQSLVHSNGNTYLHWYLQKPGQSPKLLIYKVSNRFSGVPDRFSGSGSGTDFTLKISRVEAEDLGAYFCSQSTHVPYTFGGPTRLEIKR	highest potency
